Experimental data: patent US20250215039A1, “NUCLEOSIDES FOR TREATING CANCER” (PRIMEFOUR THERAPEUTICS, INC., priority 2022, published 2025)

What was measured:
Assay in all cases: not read
Conditions in all cases: other: substrate of human CDA, 37° C., Michaelis Menten fit, pH 7.5
not read [1] = substrate: C[C@]1(CO)O[C@@H](n2cc(F)c(N)nc2=O)C[C@@H]1O
Description: (§1) Transfer 7.2 μl of each of the substrate DMSO stock in step 2 into a 500 μl 96-Well V-bottom Microplate, clear SBS footprint, cat #P-96-450V-C
Add 352.8 μl assay buffer to the wells
(§2) For deaminated product compounds mix 4 μl product with 196 μl assay buffer
(§3) This was incubated at 37° C. for 1 h. 200 μl of this mixture was transferred into the assay plate to serve as the product control.
(§4) Product+buffer: mix 80 ul of the 2.5× intermediate product stocks (from step 3) with 120 ul assay buffer into product control (no enzyme) wells
(§5) Incubate the plate alongside the 20 nM CDA enzyme intermediate stock at 37° C. to temperature equilibrate reagents
(§6) Add 120 μl of the 20 nM enzyme mix into the Substrate+CDA wells and start reading at 290 nm every 30 s for about 60 min
50 and 200 uM substrate and product
(§7) In 100 mM Tris, pH 7.5, 100 mM KCl, 0.8% carryover DMSO
5 min incubation at 37° C.
(§8) Absorbance at 290 nm every 30 s at 37° C. for 1 h using FlexStation 3
(§9) Convert A290 to concentration of substrate remaining at time t after enzyme addition:
(§10) [formula] • where: • St=absorbance reading of: substrate+CDA wells at time t • So=Average absorbance reading of: substrate+buffer wells • Po=Average absorbance reading of: product+buffer wells • [S]t=initial substrate concentration • Use GraphPad to plot [substrate] against time to calculate initial velocity or slope (μMs^−1) i.e. the linear range of each curve • Express rate in s^−1 by dividing initial velocity by the total enzyme concentration.
(§11) Plot rate against [substrate] and fit data to standard Michaelis Menten equation to obtain kcat and KM parameters.

not read [2] = substrate: C[C@]1(CO)O[C@@H](n2cc(F)c(N)nc2=O)[C@@H](O)[C@@H]1O
Description: as §1
Add 352.8 μl assay buffer to the wells
as §2, §3, §4, §5, §6
50 and 200 uM substrate and product
as §7
5 min incubation at 37° C.
as §8, §9, §10, §11

not read [3] = substrate: C[C@]1(CO)O[C@@H](n2ccc(N)nc2=O)[C@@H](O)[C@@H]1O
Description: as §1
Add 352.8 μl assay buffer to the wells
as §2, §3, §4, §5, §6
50 and 200 uM substrate and product
as §7
5 min incubation at 37° C.
as §8, §9, §10, §11

not read [4] = substrate: Nc1ccn([C@@H]2O[C@H](CO)[C@@H](O)C2(F)F)c(=O)n1
Description: as §1
Add 352.8 μl assay buffer to the wells
as §2, §3, §4, §5, §6
50 and 200 uM substrate and product
as §7
5 min incubation at 37° C.
as §8, §9, §10, §11

B1: human cytidine deaminase (CDA) (Homo sapiens) (protein)
chain: MAQKRPACTLKPECVQQLLVCSQEAKKSAYCPYSHFPVGAALLTQEGRIFKGCNIENACYPLGICAERTAIQKAVSEGYKDFRAIAIASDMQDDFISPCGACRQVMREFGTNWPVYMTKPDGTYIVMTVQELLPSSFGPEDLQKTQ
Km (not read [1]): 1003 µM
kcat (not read [1]): 13.3 s⁻¹
kcat/Km (not read [1]): 23000 M⁻¹ s⁻¹
Km (not read [2]): 1057.8 µM
kcat (not read [2]): 6.1 s⁻¹
kcat/Km (not read [2]): 5000 M⁻¹ s⁻¹
Km (not read [3]): 196 µM
kcat (not read [3]): 2.8 s⁻¹
kcat/Km (not read [3]): 16000 M⁻¹ s⁻¹
Km (not read [4]): 520.8 µM
kcat (not read [4]): 26.8 s⁻¹
kcat/Km (not read [4]): 0.53 (M^−1s^−1) × 10^5
